Reference: patent publication US20220242939A1

Experiments:
[1] = molecular target: recombinant full-length ApoE4 (aa 1-299; SEQ ID NO:45; Abcam cat. no. ab50243) (human) (UniProt P02649); assay: direct ELISA; proteins coated at 0.1 uM, BSA peptides at 1 ug/ml; antibody in 3-fold dilutions from 3000 ng/ml; blank reduced OD 450 nm
[2] = molecular target: recombinant C-terminal ApoE fragment L198-HIS (ApoE-L198-H299-10xHIS) (human) (UniProt P02649); assay: as above
[3] = molecular target: recombinant C-terminal ApoE fragment G200-HIS (ApoE-G200-H299-10xHIS) (human) (UniProt P02649); assay: direct ELISA, second protocol; proteins coated at 0.1 uM, BSA peptides at 1 ug/ml; antibody in 3-fold dilutions from 3000 ng/ml; blank reduced OD 450 nm
[4] = molecular target: recombinant full-length ApoE4 (aa 1-299; SEQ ID NO:45; Abcam cat. no. ab50243) (human) (UniProt P02649); assay: as above
[5] = molecular target: recombinant C-terminal ApoE fragment G200-HIS (ApoE-G200-H299-10xHIS) (human) (UniProt P02649); assay: direct ELISA, target coated at 1 ug/ml, reference antibody in 3-fold dilutions from 1000 ng/ml, OD 450 nm
[6] = molecular target: recombinant full-length ApoE4 (aa 1-299; SEQ ID NO:45; Abcam cat. no. ab50243) (human) (UniProt P02649); assay: as above
[7] = molecular target: recombinant C-terminal ApoE fragment A199-HIS (ApoE-A199-H299-10xHIS) (human) (UniProt P02649); assay: direct ELISA; proteins coated at 0.1 uM, BSA peptides at 1 ug/ml; antibody in 3-fold dilutions from 3000 ng/ml; blank reduced OD 450 nm
[8] = molecular target: recombinant full-length ApoE4 (aa 1-299; SEQ ID NO:45; Abcam cat. no. ab50243) (human) (UniProt P02649); assay: as above; remark: listed apart in the source
[9] = molecular target: His-tagged recombinant full-length ApoE4, 10xHIS-ApoE4(1-299) (human) (UniProt P02649); assay: direct ELISA, target coated at 1 ug/ml, antibody in 3-fold dilutions from 500 ng/ml, OD 450 nm
[10] = molecular target: recombinant C-terminal ApoE fragment G200-HIS (ApoE-G200-H299-10xHIS) (human) (UniProt P02649); assay: as above

Chain of recombinant C-terminal ApoE fragment G200-HIS (ApoE-G200-H299-10xHIS) (human) (P02649 other isoform, or with tags, fused parts or gaps limits assumed): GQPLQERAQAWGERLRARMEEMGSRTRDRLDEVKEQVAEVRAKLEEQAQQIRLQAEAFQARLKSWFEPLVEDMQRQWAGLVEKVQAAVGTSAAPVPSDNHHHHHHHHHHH
Chain of recombinant full-length ApoE4 (aa 1-299; SEQ ID NO:45; Abcam cat. no. ab50243) (human) (P02649 19-317 C130R limits assumed): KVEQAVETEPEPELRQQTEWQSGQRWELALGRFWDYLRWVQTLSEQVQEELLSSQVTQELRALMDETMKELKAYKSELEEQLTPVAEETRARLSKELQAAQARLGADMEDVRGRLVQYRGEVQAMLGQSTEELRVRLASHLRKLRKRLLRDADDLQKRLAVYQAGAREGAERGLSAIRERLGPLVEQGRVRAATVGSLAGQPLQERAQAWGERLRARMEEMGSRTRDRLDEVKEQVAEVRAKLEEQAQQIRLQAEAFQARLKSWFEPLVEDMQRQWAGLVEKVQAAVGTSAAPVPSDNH
Chain of recombinant C-terminal ApoE fragment L198-HIS (ApoE-L198-H299-10xHIS) (human) (P02649 other isoform, or with tags, fused parts or gaps limits assumed): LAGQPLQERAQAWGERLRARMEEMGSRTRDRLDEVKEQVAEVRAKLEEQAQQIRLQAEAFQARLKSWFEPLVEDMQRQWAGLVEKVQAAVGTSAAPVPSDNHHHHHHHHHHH
Chain of His-tagged recombinant full-length ApoE4, 10xHIS-ApoE4(1-299) (human) (P02649 other isoform, or with tags, fused parts or gaps limits assumed): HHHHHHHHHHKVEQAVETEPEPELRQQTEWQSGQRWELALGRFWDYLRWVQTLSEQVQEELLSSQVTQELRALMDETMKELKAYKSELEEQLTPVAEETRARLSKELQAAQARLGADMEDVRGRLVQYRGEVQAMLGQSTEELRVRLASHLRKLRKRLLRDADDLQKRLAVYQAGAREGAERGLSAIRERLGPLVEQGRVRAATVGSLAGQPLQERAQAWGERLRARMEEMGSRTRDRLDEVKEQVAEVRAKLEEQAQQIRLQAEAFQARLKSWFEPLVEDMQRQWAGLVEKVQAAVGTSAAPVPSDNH
Chain of recombinant C-terminal ApoE fragment A199-HIS (ApoE-A199-H299-10xHIS) (human) (P02649 other isoform, or with tags, fused parts or gaps limits assumed): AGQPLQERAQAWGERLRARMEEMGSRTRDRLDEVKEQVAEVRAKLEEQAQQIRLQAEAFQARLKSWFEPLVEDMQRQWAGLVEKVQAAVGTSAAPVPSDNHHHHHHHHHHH

## reference anti-ApoE C-terminal antibody ApoE E-8 mouse monoclonal (Santa Cruz Biotechnology, cat. no. sc-393302)
[1]
  EC50 (read off the curve): 8 ng/mL
[2]
  EC50 (read off the curve): 2 ng/mL
[3]
  EC50 (read off the curve): 4 ng/mL
[4]
  EC50 (read off the curve): 4 ng/mL
[5]
  EC50 (read off the curve): 5 ng/mL
[6]
  EC50 (read off the curve): 4 ng/mL
[7]
  EC50 (read off the curve): 5 ng/mL
[8]
  EC50 (read off the curve): 6 ng/mL
[9]
  EC50 (read off the curve): 4 ng/mL
[10]
  EC50 (read off the curve): 4 ng/mL
